Data on four variants can be found in IntAct's records for PubMed 24389026.

The chains are these.
B1: E3 ubiquitin-protein ligase FANCL (Homo sapiens), Q9NW38-1 (parent)
chain: MAVTEASLLRQCPLLLPQNRSKTVYEGFISAQGRDFHLRIVLPEDLQLKNARLLCSWQLRTILSGYHRIVQQRMQHSPDLMSFMMELKMLLEVALKNRQELYALPPPPQFYSSLIEEIGTLGWDKLVYADTCFSTIKLKAEDASGREHLITLKLKAKYPAESPDYFVDFPVPFCASWTPQSSLISIYSQFLAAIESLKAFWDVMDEIDEKTWVLEPEKPPRSATARRIALGNNVSINIEVDPRHPTMLPECFFLGADHVVKPLGIKLSRNIHLWDPENSVLQNLKDVLEIDFPARAILEKSDFTMDCGICYAYQLDGTIPDQVCDNSQCGQPFHQICLYEWLRGLLTSRQSFNIIFGECPYCSKPITLKMSGRKH
B2: Ubiquitin-conjugating enzyme E2 T (Homo sapiens), Q9NPD8 (parent)
chain: MQRASRLKRELHMLATEPPPGITCWQDKDQMDDLRAQILGGANTPYEKGVFKLEVIIPERYPFEPPQIRFLTPIYHPNIDSAGRICLDVLKLPPKGAWRPSLNIATVLTSIQLLMSEPNPDDPLMADISSEFKYNKPAFLKNARQWTEKHARQKQKADEEEMLDNLPEAGDSRVHNSTQKRKASQLVGIEKKFHPDV
partner: B1 chain

In one assay the parent is B1. The conditions noted are these: with ube2t_human UBE2T.
With Y311A, the “effect of a mutation on the interaction” value is “disrupting interaction strength”.
On to I309A, for which the “effect of a mutation on the interaction” value is on record as “disrupting interaction strength”.
Take W341A: the “effect of a mutation on the interaction” value was “disrupting interaction strength”.

In the next assay the parent is B2. The conditions noted are these: with FANCL.
For R60E, the “effect of a mutation on the interaction” value is listed as “disrupting interaction strength”.
